From patent US12630599B2, “CA2 compositions and methods for tunable regulation” (Obsidian Therapeutics, Inc., priority 2019, dated 2026)

B1: OT-002011: construct transduced into T cells for the study of the effect of mbIL12 on CAR activity (protein)
chain: IWELKKDVYVVELDWYPDAPGEMVVLTCDTPEEDGITWTLDQSSEVLGSGKTLTIQVKEFGDAGQYTCHKGGEVLSHSLLLLHKKEDGIWSTDILKDQKEPKNKTFLRCEAKNYSGRFTCWWLTTISTDLTFSVKSSRGSSDPQGVTCGAATLSAERVRGDNKEYEYSVECQEDSACPAAEESLPIEVMVDAVHKLKYENYTSSFFIRDIIKPDPPKNLQLKPLKNSRQVEVSWEYPDTWSTPHSYFSLTFCVQVQGKSKREKKDRVFTDKTSATVICRKNASISVRAQDRYYSSSWSEWASVPCSGGGGSGGGGSGGGGSRNLPVATPDPGMFPCLHHSQNLLRAVSNMLQKARQTLEFYPCTSEEIDHEDITKDKTSTVEACLPLELTKNESCLNSRETSFITNGSCLASRKTSFMMALCLSSIYEDLKMYQVEFKTMNAKLLMDPKRQIFLDQNMLAVIDELMQALNFNSETVPQKSSLEEPDFYKTKIKLCILLHAFRIRAVTIDRVMSYLNASGSGSGSGSGSGSGSGSGSGSGSGSGSGSGSLDFACDLLPSWAITLISVNGIFVICCLTYCFAPRCRERRGS
B2: OT-002111: construct transduced into T cells for the study of the effect of mbIL12 on CAR activity (protein)
chain: IWELKKDVYVVELDWYPDAPGEMVVLTCDTPEEDGITWTLDQSSEVLGSGKTLTIQVKEFGDAGQYTCHKGGEVLSHSLLLLHKKEDGIWSTDILKDQKEPKNKTFLRCEAKNYSGRFTCWWLTTISTDLTFSVKSSRGSSDPQGVTCGAATLSAERVRGDNKEYEYSVECQEDSACPAAEESLPIEVMVDAVHKLKYENYTSSFFIRDIIKPDPPKNLQLKPLKNSRQVEVSWEYPDTWSTPHSYFSLTFCVQVQGKSKREKKDRVFTDKTSATVICRKNASISVRAQDRYYSSSWSEWASVPCSGGGGSGGGGSGGGGSRNLPVATPDPGMFPCLHHSQNLLRAVSNMLQKARQTLEFYPCTSEEIDHEDITKDKTSTVEACLPLELTKNESCLNSRETSFITNGSCLASRKTSFMMALCLSSIYEDLKMYQVEFKTMNAKLLMDPKRQIFLDQNMLAVIDELMQALNFNSETVPQKSSLEEPDFYKTKIKLCILLHAFRIRAVTIDRVMSYLNASGSGSGSGSADFPTPSISDFEIPTSNIRRIICSTSGGFPEPHLSWLENGEELNAINTTVSQDPETELYAVSSKLDFNMTTNHSFMCLIKYGHLRVNQTFNWNTTKQEHFPDNGS

Tested on: Nalm-6 cells
Experiment: 48 hour cytotoxicity assay, T cells co-cultured with Nalm-6 cells (NucRed), Incucyte (Example 4, Table 14)
Format: cell-based
Conditions: for Average Total Nalm6-NucRed Area after 48 hour at E:T ratio of 3:1: E:T ratio 3:1, 48 hour; for Average Total Nalm6-NucRed Area after 48 hour at E:T ratio of 10:1: E:T ratio 10:1, 48 hour
From the text: The following constructs were transduced into T cells: OT-001356 (nucleic acid sequence SEQ ID NO: 6081 encodes two amino acid sequences, first is SEQ ID NO: 6082 (nucleic acid sequence SEQ ID NO: 6083) second is SEQ ID NO: 6084 (nucleic acid sequence SEQ ID NO: 6085)), OT-001356 (amino acid sequence provided as SEQ ID NO: 6092 and nucleic acid is SEQ ID NO: 6093) OT-001407 (amino acid sequence provided as SEQ ID NO: 6086 and nucleic acid is SEQ ID NO: 6087), OT-001895, OT-002011, OT-002111, OT-0020%, OT-02171. The cells were expanded for 10 days and utilized for cytotoxicity assays. Percentage of CAR positive cells obtained with each of the constructs was as follows: OT-001356: 45.3%; OT-001407, OT-001895: 29.4%, OT-002011: 24.3%, OT-002111: 19.6%, OT-0020%: 6.08%, OT-002171: 13.3%. For cytotoxicity assays, T cells were thawed and co-cultured with Nalm-6 cells (stably expressing NucRed) at different T cells to Nalm-6 cell culture ratios. Target cell viability was determined by measuring cellular fluorescence over time using an Incucyte assay and the results are shown in Table 14.

| Molecule | Average Total Nalm6-NucRed Area after 48 hour at E:T ratio of 3:1 | Average Total Nalm6-NucRed Area after 48 hour at E:T ratio of 10:1 |
| --- | --- | --- |
| B1 | 59,465 | 44,301 |
| B2 | 42,520 | 42,899 |
